Tests used:
[1] = molecular target: FcRn, FCGRT & B2M dimer receptor (Sino Biological Inc.); assay: SPR, mean over 100-12.5 nM analyte, (RU at pH 7.4 / RU at pH 6.0) x 100
[2] = molecular target: FcRn, FCGRT & B2M dimer receptor (Sino Biological Inc.); assay: SPR, FcRn on CM5 chip, 25 nM analyte, RU 10 s after start of dissociation at pH 7.4
[3] = molecular target: FcRn, FCGRT & B2M dimer receptor (Sino Biological Inc.); assay: SPR, 100 nM analyte, (RU at pH 7.4 / RU at pH 6.0) x 100
[4] = molecular target: FcRn, FCGRT & B2M dimer receptor (Sino Biological Inc.); assay: SPR, FcRn on CM5 chip, 25 nM analyte, RU 2 s before end of pH 6.0 injection
[5] = molecular target: FcRn, FCGRT & B2M dimer receptor (Sino Biological Inc.); assay: SPR, FcRn on CM5 chip, 12.5 nM analyte, RU 10 s after start of dissociation at pH 7.4
[6] = molecular target: FcRn, FCGRT & B2M dimer receptor (Sino Biological Inc.); assay: SPR, FcRn on CM5 chip, 12.5 nM analyte, RU 2 s before end of pH 6.0 injection
[7] = molecular target: FcRn, FCGRT & B2M dimer receptor (Sino Biological Inc.); assay: SPR, FcRn on CM5 chip, 100 nM analyte, RU 10 s after start of dissociation at pH 7.4
[8] = molecular target: FcRn, FCGRT & B2M dimer receptor (Sino Biological Inc.); assay: SPR (BIACORE 3000), FcRn on CM5 chip, pH 6.0, 1:1 Langmuir with drifting baseline
[9] = molecular target: FcRn, FCGRT & B2M dimer receptor (Sino Biological Inc.); assay: SPR, 12.5 nM analyte, (RU at pH 7.4 / RU at pH 6.0) x 100
[10] = molecular target: FcRn, FCGRT & B2M dimer receptor (Sino Biological Inc.); assay: SPR, FcRn on CM5 chip, 50 nM analyte, RU 10 s after start of dissociation at pH 7.4
[11] = molecular target: FcRn, FCGRT & B2M dimer receptor (Sino Biological Inc.); assay: SPR, FcRn on CM5 chip, 100 nM analyte, RU 2 s before end of pH 6.0 injection
[12] = molecular target: FcRn, FCGRT & B2M dimer receptor (Sino Biological Inc.); assay: SPR, 25 nM analyte, (RU at pH 7.4 / RU at pH 6.0) x 100
[13] = molecular target: FcRn, FCGRT & B2M dimer receptor (Sino Biological Inc.); assay: SPR, 50 nM analyte, (RU at pH 7.4 / RU at pH 6.0) x 100
[14] = molecular target: FcRn, FCGRT & B2M dimer receptor (Sino Biological Inc.); assay: SPR, FcRn on CM5 chip, 50 nM analyte, RU 2 s before end of pH 6.0 injection

Chain of FcRn, FCGRT & B2M dimer receptor (Sino Biological Inc.) (P55899 24-297, chain 1 of 2): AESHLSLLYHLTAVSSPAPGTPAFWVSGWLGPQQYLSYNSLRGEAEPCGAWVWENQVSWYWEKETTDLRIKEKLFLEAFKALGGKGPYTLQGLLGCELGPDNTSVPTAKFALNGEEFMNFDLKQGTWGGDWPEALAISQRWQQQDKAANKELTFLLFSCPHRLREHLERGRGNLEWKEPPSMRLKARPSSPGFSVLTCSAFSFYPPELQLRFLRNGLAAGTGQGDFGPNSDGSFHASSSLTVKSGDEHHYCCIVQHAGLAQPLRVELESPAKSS
Chain of FcRn, FCGRT & B2M dimer receptor (Sino Biological Inc.) (P61769 21-119, chain 2 of 2, further chain): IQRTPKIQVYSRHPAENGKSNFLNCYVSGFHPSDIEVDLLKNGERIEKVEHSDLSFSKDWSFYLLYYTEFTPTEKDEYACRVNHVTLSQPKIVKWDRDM
Chain of Human growth hormone-immunoglobulin Fc fragment conjugate (P01241 27-217): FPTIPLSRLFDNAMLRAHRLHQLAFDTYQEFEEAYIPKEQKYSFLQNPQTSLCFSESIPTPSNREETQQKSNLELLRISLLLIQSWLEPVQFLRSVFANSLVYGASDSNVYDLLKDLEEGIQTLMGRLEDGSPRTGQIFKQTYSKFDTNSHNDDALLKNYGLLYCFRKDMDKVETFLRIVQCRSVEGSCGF

| Substance | Average binding ratio (%) [1] [%] | Binding amount (RU) at pH 7.4 [2] [RU] | Binding ratio (%) [3] [%] | Binding amount (RU) at pH 6.0 [4] [RU] | Binding amount (RU) at pH 7.4 [5] [RU] | Binding amount (RU) at pH 6.0 [6] [RU] | Binding amount (RU) at pH 7.4 [7] [RU] | Kd [8] [µM] | koff [8] [s⁻¹] | kon [8] [M⁻¹ s⁻¹] | Binding ratio (%) [9] [%] | Binding amount (RU) at pH 7.4 [10] [RU] | Binding amount (RU) at pH 6.0 [11] [RU] | Binding ratio (%) [12] [%] | Binding ratio (%) [13] [%] | Binding amount (RU) at pH 6.0 [14] [RU] |
| --- | --- | --- | --- | --- | --- | --- | --- | --- | --- | --- | --- | --- | --- | --- | --- | --- |
| Human growth hormone-immunoglobulin Fc fragment conjugate (from UniProt P01241 27-217) | 6.6 | 8.3 | 4 | 112 | 8.1 | 82.9 | 8.2 | 0.0268 | 0.0036 | 120000 | 9.8 | 7.7 | 206 | 7.4 | 5.1 | 153 |
| Interferon-immunoglobulin Fc fragment conjugate (from UniProt P01563 24-188) | 5 | 6.7 | 3.2 | 120 | 6.4 | 91.3 | 6.4 | 0.03 | 0.0093 | 300000 | 7 | 6.7 | 197 | 5.6 | 4.3 | 157 |
